System: human pluripotent stem cells provided at high cell density
Test: Hematopoietic cell formation in high cell density differentiation culture
Assay type: cell-based
Settings: with 50 ng/ml BMP4
Protocol: FIGS. 1A-1F concern hematopoietic cell differentiation in accord with the invention. […] Cells in high cell density methods of the experiments depicted in this figure were plated at 1.1×10^5 cells/cm^2. Cells in low cell density methods of the experiments depicted in this figure were plated at 1.8×10^4 cells/cm^2. The photographs of FIG. 1B show cell morphology of cells of each culture at day 10. […] The hematopoietic cells could be cryopreserved at day 10 (90% FBS+10% DMSO) and hemangioblasts can be cryopreserved at day 6.
FIG. 2A-2D show Notch and YAP signaling in the low and high density cell cultures. FIGS. 2A-2B show immunostaining of YAP and NICD1 (Notch intra-cellular domain). […] Cells cultured at high density were treated with or without 10 μM DAPT (a Notch inhibitor) from day 2-10.
FIGS. 3A-3E show BMP4 signaling in the low and high density cell cultures. […] Cells were cultured at high density with or without 50 ng/ml BMP4. […] Cells were cultured at low density with or without LDN (a BMP signaling inhibitor).
Cell-cell contact regulates arterial endothelial cells and hemangioblast cell fate determination—Endothelial-to-hematopoietic stem cell transition occurs in aorta-gonad-mesonephros region. We therefore investigated whether human pluripotent stem cell-derived arterial endothelial cells can be reprogrammed into hematopoietic stem cells. […]

B1: BMP4: Bone Morphogenetic Protein 4, added at 50 ng/ml to high density culture (protein, UniProt P12644 293-408, looked up)
Bone morphogenetic protein 4: SPKHHSQRARKKNKNCRRHSLYVDFSDVGWNDWIVAPPGYQAFYCHGDCPFPLADHLNSTNHAIVQTLVNSVNSSIPKACCVPTELSAISMLYLDEYDKVVLKNYQEMVVEGCGCR
  hematopoiesis (total hematopoietic cell number, cell morphology at day 10): promoted hematopoiesis
